Target: taxol-stabilised pig-brain MTs (pig) (UniProt P02550)
Assay: co-sedimentation

For “CENP-Q (from UniProt Q7L2Z9 1-268) (natural protein)”, the Kd was 700 nM and the stoichiometry N was 6 CENP-Q:MT.

From publication PMC2909587
